We go through three molecules from article PMC3479092, “Tsetse Salivary Gland Proteins 1 and 2 Are High Affinity Nucleic Acid Binding Proteins with Residual Nuclease Activity”.

For orientation: Kd means the free concentration of one partner at which half of the binding sites on the other are occupied at equilibrium, for simple one-to-one binding.

Data set [1] addresses T1, Tsal1 (Glossina morsitans morsitans, UniProt D3TS87 23-399).
T1 sequence: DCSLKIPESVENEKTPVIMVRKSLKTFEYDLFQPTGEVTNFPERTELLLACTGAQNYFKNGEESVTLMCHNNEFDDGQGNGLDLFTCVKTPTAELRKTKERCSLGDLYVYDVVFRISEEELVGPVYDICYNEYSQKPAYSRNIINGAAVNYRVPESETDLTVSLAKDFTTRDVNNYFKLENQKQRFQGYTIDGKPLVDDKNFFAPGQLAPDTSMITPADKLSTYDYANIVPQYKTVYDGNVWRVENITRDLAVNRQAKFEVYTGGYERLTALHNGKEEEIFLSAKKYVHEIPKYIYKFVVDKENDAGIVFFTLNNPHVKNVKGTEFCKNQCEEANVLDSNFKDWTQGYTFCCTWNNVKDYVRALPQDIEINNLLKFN
The data set can be described thus: SPR. Particulars: SPR (BIAcore), 50 mM sodium acetate pH 4.0, 150 mM NaCl, 3.5 mM EDTA, 0.005% Tween-20, 30 ul/min, Langmuir 1:1 fit; temperature not stated. For orientation: In SPR one partner is held on a chip, and binding of the other changes the refractive index at the surface.

Data set [2] concerns the target T1, Tsal1. The data set can be described thus: SPR; text: 1.03 nM; ka 1.0E+06, kd 1.0E-03; SPR (BIAcore), 50 mM sodium acetate pH 4.0, 150 mM NaCl, 3.5 mM EDTA, 0.005% Tween-20, 30 ul/min, Langmuir 1:1 fit; temperature not stated. The note with it: protein: recombinant; tags: pelB leader (pET22b), His tag implied by Ni-NTA; blunt.

The molecule dsRNA 121 bp registered a Kd with Tsal1 [1] of 2.8 nM. dsDNA 161 bp: the Kd with Tsal1 [1] is 0.45 nM.

B1: dsDNA 25bp polyA/T (dsDNA)
DNA 1: AAAAAAAAAAAAAAAAAAAAAAAAA
DNA 2: TTTTTTTTTTTTTTTTTTTTTTTTT
Regarding B1, in the data set with Tsal1 [2], the Kd was 1 nM.
